# ± gives the uncertainty stated by the source.
# Test: self-splicing fitness, log relative to wild type (ln ratio); higher = more splicing; Tetrahymena group I intron in knt gene, E. coli kanamycin selection, DiMSum; sequences stand for … in CUCUCU…GGAGGGAAAAGUUAUCAGGCAUGCACCUGGUAGCUAGUCUUUAAACCAAUAGAUUGCAUCGGUUUAAAAGGCAAGACCGUCAAAUUGCGGGAAAGGGGUCAACAGCCGUUCAGUACCAAGUCUCAGGGGAAACUUUGAGAUGGCCUUGCAAAGGGUAUGGUAAUAAGCUGACGGACAUGGUCCUAACCACGCAGCCAAGUCCUAAGUCAACAGAUCUUCUGUUGAUAUGGAUGCAGUUCACAGACUAAAUGUCGGUCGGGGAAGAUGUAUUCUUCUCAUAAGAUAUAGUCGGACCUCUCCUUAAUGGGAGCUAGCGGAUGAAGUGAUGCAACACUGGAGCCGCUGGGAACUAAUUUGUAUGCGAAAGUAUAUUGAUUAGUUUUGGAGUACUCGUGGUCG
# Outline: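 Six replicate transformations of E. coli BL21(DE3) with a pET-22b(+) library were grown overnight at 37°C or 30°C. The library randomised all eight P1ex-region intron nucleotides, the intron lying in the knt kanamycin-resistance gene, and plates were LB agar with or without 25 μg/mL kanamycin plus 100 μg/mL carbenicillin, 50 μM IPTG and 0.2% rhamnose. Pooled colonies were amplicon-sequenced on an Illumina HiSeq 2500, and fitness is the DiMSum error-weighted combination of wild-type-normalised replicate fold changes, kanamycin versus none.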
Sequence,self-splicing fitness (ln) (30 °C),self-splicing fitness (ln) (37 °C)
GUUCAGCAAUAUUACGGUGU,-0.503 ± 0.05,0.262 ± 0.075
UUACAGCAAUAUUACGGGAA,-1.78 ± 0.086,-0.461 ± 0.084
ACCGAGCAAUAUUACGUCGG,-4.23 ± 0.39,-3.13 ± 0.35
AAUCAGCAAUAUUACGCAGC,-1.36 ± 0.15,-0.207 ± 0.14
CUGUAGCAAUAUUACGAGGA,-2.78 ± 0.41,-1.62 ± 0.32
AGCGAGCAAUAUUACGUAGC,-2.83 ± 0.26,-0.813 ± 0.27
AGAGAGCAAUAUUACGAGGA,-2.71 ± 0.4,-2.21 ± 0.34
UUGGAGCAAUAUUACGACCA,-3.12 ± 0.48,-1.34 ± 0.35
CUUCAGCAAUAUUACGUAUU,-3.18 ± 0.17,-2.37 ± 0.2
GAAAAGCAAUAUUACGGGCG,-1.32 ± 0.071,-0.282 ± 0.1
AGUAAGCAAUAUUACGUUUC,-3.78 ± 0.23,-1.37 ± 0.21
GCUGAGCAAUAUUACGAAAG,-1.75 ± 0.2,-1.46 ± 0.23
GUACAGCAAUAUUACGGCCU,-1.84 ± 0.17,0.0868 ± 0.17
UGUAAGCAAUAUUACGACGA,-0.272 ± 0.12,-0.249 ± 0.11
CUCGAGCAAUAUUACGCCAU,-2.93 ± 0.48,-1.94 ± 0.35
CUUAAGCAAUAUUACGGGUU,-2.65 ± 0.19,-3.2 ± 0.27
GACAAGCAAUAUUACGGACA,-1.33 ± 0.14,-0.153 ± 0.13
GAACAGCAAUAUUACGCCCC,-1.22 ± 0.25,-0.835 ± 0.47
UCCUAGCAAUAUUACGAGAA,-1.36 ± 0.25,-0.965 ± 0.23
UUAAAGCAAUAUUACGAUAG,-0.00915 ± 0.088,-0.00163 ± 0.12
ACGGAGCAAUAUUACGACGG,-1.46 ± 0.1,0.14 ± 0.12
UGACAGCAAUAUUACGGCCC,-0.701 ± 0.12,-0.967 ± 0.18
CAGUAGCAAUAUUACGGACA,-2.94 ± 0.17,-2.23 ± 0.17
GAACAGCAAUAUUACGCCCG,-2.49 ± 0.22,-0.797 ± 0.2
CGGCAGCAAUAUUACGUUAU,-2.5 ± 0.17,-2.56 ± 0.21
AGCCAGCAAUAUUACGCCAC,–,-3.04 ± 0.43

Sequence,self-splicing fitness (ln) (30 °C),self-splicing fitness (ln) (37 °C)
UUAAAGCAAUAUUACGCAGG,-0.165 ± 0.12,-0.592 ± 0.15
UUGGAGCAAUAUUACGUCAA,-2.19 ± 0.25,-0.538 ± 0.19
GUAGAGCAAUAUUACGCGAG,-1.69 ± 0.14,-0.548 ± 0.14
AUUCAGCAAUAUUACGGUAU,-0.934 ± 0.065,-0.155 ± 0.073
GUGAAGCAAUAUUACGGCAG,-2.32 ± 0.13,-1.06 ± 0.16
CGUCAGCAAUAUUACGUUGG,-3.57 ± 0.11,-2.78 ± 0.16
UACUAGCAAUAUUACGUGCA,-1.01 ± 0.073,0.166 ± 0.09
UAAAAGCAAUAUUACGGAAG,-2.03 ± 0.15,-0.624 ± 0.15
ACAAAGCAAUAUUACGGGGG,-2.81 ± 0.13,-2.19 ± 0.16
CCGGAGCAAUAUUACGAGUG,-1.61 ± 0.076,-0.14 ± 0.084
UUUGAGCAAUAUUACGACGA,-0.573 ± 0.15,0.211 ± 0.18
UUUGAGCAAUAUUACGCCUA,-0.79 ± 0.45,–
GAGAAGCAAUAUUACGCGGA,-2.51 ± 0.22,-1.39 ± 0.17
GUAGAGCAAUAUUACGUCUA,-1.34 ± 0.11,-0.919 ± 0.13
CCCUAGCAAUAUUACGCGCG,-3.46 ± 0.16,-3.35 ± 0.27
UUUCAGCAAUAUUACGUACA,-0.836 ± 0.11,-0.465 ± 0.11
AGGGAGCAAUAUUACGCCGU,-2.11 ± 0.42,-0.233 ± 0.39
UUCAAGCAAUAUUACGAGGC,-1.97 ± 0.21,-1.76 ± 0.23
CGCCAGCAAUAUUACGUAUU,-3.2 ± 0.093,-2.71 ± 0.15
GGAAAGCAAUAUUACGGGUA,-1.86 ± 0.17,-1.32 ± 0.15
GAGCAGCAAUAUUACGUAAU,-1.59 ± 0.063,-0.994 ± 0.1
CCUGAGCAAUAUUACGCCUG,-3.03 ± 0.26,-2.47 ± 0.25
UGUAAGCAAUAUUACGAUAA,-1.12 ± 0.1,0.257 ± 0.13
UUAUAGCAAUAUUACGCCCA,-1.57 ± 0.22,-0.787 ± 0.26
AGAAAGCAAUAUUACGAGCA,-0.695 ± 0.11,-0.262 ± 0.16
GUGUAGCAAUAUUACGUCAA,-1.16 ± 0.15,-1.14 ± 0.15

Sequence,self-splicing fitness (ln) (30 °C),self-splicing fitness (ln) (37 °C)
AUUUAGCAAUAUUACGGGCA,-1.56 ± 0.19,-0.452 ± 0.26
CCAGAGCAAUAUUACGUUGA,-2.69 ± 0.22,-3.35 ± 0.24
AGGUAGCAAUAUUACGGGCA,-0.941 ± 0.017,-0.414 ± 0.034
CACCAGCAAUAUUACGAACG,0.223 ± 0.063,0.344 ± 0.078
UGGGAGCAAUAUUACGCUAU,-1.67 ± 0.29,-2.62 ± 0.38
AAUCAGCAAUAUUACGCUUC,-1.77 ± 0.069,-0.398 ± 0.088
ACCUAGCAAUAUUACGCUAU,-1.89 ± 0.084,-1.1 ± 0.1
GUUUAGCAAUAUUACGUCGC,-1.67 ± 0.16,-0.462 ± 0.18
ACACAGCAAUAUUACGGGAG,-2.04 ± 0.073,-2.15 ± 0.084
CGAAAGCAAUAUUACGAGUG,-0.203 ± 0.049,0.0139 ± 0.065
ACUUAGCAAUAUUACGUUUA,-1.5 ± 0.17,-1.07 ± 0.18
GAGAAGCAAUAUUACGGUGC,-2.81 ± 0.19,0.59 ± 0.21
GAUUAGCAAUAUUACGUUAU,-3.04 ± 0.21,-2.51 ± 0.18
GGUUAGCAAUAUUACGGCUA,-0.605 ± 0.088,0.861 ± 0.13
AAUAAGCAAUAUUACGCGGG,-2.62 ± 0.13,-1.35 ± 0.14
AAUAAGCAAUAUUACGGCGC,0.251 ± 0.12,-0.478 ± 0.13
CACUAGCAAUAUUACGGUGC,-2.24 ± 0.22,-2.43 ± 0.35
GGUGAGCAAUAUUACGGCAC,-1.85 ± 0.17,-0.155 ± 0.18
CUAAAGCAAUAUUACGGGCA,-3.06 ± 0.14,-2.54 ± 0.21
GAUCAGCAAUAUUACGUGUA,-1.36 ± 0.069,-0.723 ± 0.082
AGGUAGCAAUAUUACGUUGG,-3.813 ± 0.028,-2.95 ± 0.041
ACUUAGCAAUAUUACGGUGA,-1.76 ± 0.15,-1.56 ± 0.15
CCGUAGCAAUAUUACGUCUA,-2.84 ± 0.16,-1.92 ± 0.18
UUUUAGCAAUAUUACGCGAC,-2.52 ± 0.34,–
UCGCAGCAAUAUUACGCCGA,-1.83 ± 0.19,-2.26 ± 0.22

# From the supplement of paper PMC7877785
